Laboratory results taken from article PMC5009806 (2016).

Target: amyloid beta monomer (Homo sapiens, UniProt P05067)
Test: SPR

B1: Gantenerumab (antibody, V domains shown)
VH: QVELVESGGGLVQPGGSLRLSCAASGFTFSSYAMSWVRQAPGKGLEWVSAINASGTRTYYADSVKGRFTISRDNSKNTLYLQMNSLRAEDTAVYYCARGKGNTHKPYGYVRYFDVWGQGTLVTVSS
VL: DIVLTQSPATLSLSPGERATLSCRASQSVSSSYLAWYQQKPGQAPRLLIYGASSRATGVPARFSGSGSGTDFTLTISSLEPEDFATYYCLQIYNMPITFGQGTKVEIK
- Kd: 18 nM
